Data as given in the supplement of paper PMC11246515.
± gives the standard deviation of the averaged measurements.

Assay: total protein half-life in vivo (active degradation + dilution); higher = more stable protein
[1] = E. coli NCM3722 delta-clpP, growth: N-lim chemostat, doubling time 6 h
[2] = E. coli NCM3722 delta-hslV, growth: N-lim chemostat, doubling time 6 h
[3] = E. coli NCM3722 delta-lon, growth: N-lim chemostat, doubling time 6 h
[4] = E. coli NCM3722 delta-smpB, growth: N-lim chemostat, doubling time 6 h
[5] = wild type E. coli NCM3722, growth: C-lim chemostat, doubling time 6 h
[6] = wild type E. coli NCM3722, growth: C-lim chemostat, doubling time 12 h
[7] = wild type E. coli NCM3722, growth: N-lim chemostat, doubling time 6 h
[8] = wild type E. coli NCM3722, growth: N-lim chemostat, doubling time 12 h
[9] = wild type E. coli NCM3722, growth: P-lim chemostat, doubling time 6 h
[10] = wild type E. coli NCM3722, growth: P-lim chemostat, doubling time 12 h
[11] = E. coli NCM3722 delta-clpP delta-lon delta-hslV, growth: N-lim chemostat, doubling time 6 h
[12] = wild type E. coli NCM3722, growth: C-lim chemostat, doubling time 3 h

Row | Sequence | total protein half-life in vivo [1] [h] | total protein half-life in vivo [2] [h] | total protein half-life in vivo [3] [h] | total protein half-life in vivo [4] [h] | total protein half-life in vivo [5] [h] | total protein half-life in vivo [6] [h] | total protein half-life in vivo [7] [h] | total protein half-life in vivo [8] [h] | total protein half-life in vivo [9] [h] | total protein half-life in vivo [10] [h] | total protein half-life in vivo [11] [h] | total protein half-life in vivo [12] [h]
1 | MLNQLDNLTERVRGSNKLVDRWLHVRKHLLVAYYNLVGIKPGKESYMRLNEKALDDFCQSLVDYLSAGHFSIYERILHKLEGNGQLARAAKIWPQLEANTQQIMDYYDSSLETAIDHDNYLEFQQVLSDIGEALEARFVLEDKLILLVLDAARVKHPA [P0AFX4] | 6.38 | 2.42 ± 0.21 | 2.8 | 2.38 ± 0.34 | 3.06 ± 0.11 | 5.14 ± 0.081 | 2.51 ± 0.29 | 3.09 ± 0.19 | 3.51 | 5.62 ± 0.091 | – | –
2 | MLNSILVILCLIAVSAFFSMSEISLAASRKIKLKLLADEGNINAQRVLNMQENPGMFFTVVQIGLNAVAILGGIVGDAAFSPAFHSLFSRYMSAELSEQLSFILSFSLVTGMFILFADLTPKRIGMIAPEAVALRIINPMRFCLYVCTPLVWFFNGLANIIFRIFKLPMVRKDDITSDDIYAVVEAGALAGVLRKQEHELIENVFELESRTVPSSMTPRENVIWFDLHEDEQSLKNKVAEHPHSKFLVCNEDIDHIIGYVDSKDLLNRVLANQSLALNSGVQIRNTLIVPDTLTLSEALESFKTAGEDFAVIMNEYALVVGIITLNDVMTTLMGDLVGQGLEEQIVARDENSWLIDGGTPIDDVMRVLDIDEFPQSGNYETIGGFMMFMLRKIPKRTDSVKFAGYKFEVVDIDNYRIDQLLVTRIDSKATALSPKLPDAKDKEESVA [P0AE45] | 6.93 ± 1.4 | 4.5 ± 0.44 | 4.11 ± 0.21 | 4.53 ± 0.24 | 5.16 ± 0.21 | 8.79 ± 0.3 | 4.33 ± 0.52 | 7.63 ± 0.57 | 5.01 ± 0.053 | 9 ± 0.094 | 5.65 ± 0.36 | 2.97 ± 0.18
3 | MLPKAARIPHAMTLHGDTRIDNYYWLRDDTRSQPEVLDYLQQENSYGHRVMASQQALQDRILKEIIDRIPQREVSAPYIKNGYRYRHIYEPGCEYAIYQRQSAFSEEWDEWETLLDANKRAAHSEFYSMGGMAITPDNTIMALAEDFLSRRQYGIRFRNLETGNWYPELLDNVEPSFVWANDSWIFYYVRKHPVTLLPYQVWRHAIGTPASQDKLIYEEKDDTYYVSLHKTTSKHYVVIHLASATTSEVRLLDAEMADAEPFVFLPRRKDHEYSLDHYQHRFYLRSNRHGKNFGLYRTRMRDEQQWEELIPPRENIMLEGFTLFTDWLVVEERQRGLTSLRQINRKTREVIGIAFDDPAYVTWIAYNPEPETARLRYGYSSMTTPDTLFELDMDTGERRVLKQTEVPGFYAANYRSEHLWIVARDGVEVPVSLVYHRKHFRKGHNPLLVYGYGSYGASIDADFSFSRLSLLDRGFVYAIVHVRGGGELGQQWYEDGKFLKKKNTFNDYLDACDALLKLGYGSPSLCYAMGGSAGGMLMGVAINQRPELFHGVIAQVPFVDVVTTMLDESIPLTTGEFEEWGNPQDPQYYEYMKSYSPYDNVTAQAYPHLLVTTGLHDSQVQYWEPAKWVAKLRELKTDDHLLLLCTDMDSGHGGKSGRFKSYEGVAMEYAFLVALAQGTLPATPAD | 3.82 ± 0.14 | 4.03 ± 0.38 | 4.8 ± 0.56 | 3.5 ± 0.68 | 5.11 ± 0.12 | 10.8 ± 3.6 | 4.31 ± 0.24 | 8.85 | 5.9 ± 1.3 | 10.3 ± 0.86 | – | 3.24 ± 0.09
4 | MLPSQSPAIFTVSRLNQTVRLLLEHEMGQVWISGEISNFTQPASGHWYFTLKDDTAQVRCAMFRNSNRRVTFRPQHGQQVLVRANITLYEPRGDYQIIVESMQPAGEGLLQQKYEQLKAKLQAEGLFDQQYKKPLPSPAHCVGVITSKTGAALHDILHVLKRRDPSLPVIIYPAAVQGDDAPGQIVRAIELANQRNECDVLIVGRGGGSLEDLWSFNDERVARAIFTSRIPVVSAVGHETDVTIADFVADLRAPTPSAAAEVVSRNQQELLRQVQSTRQRLEMAMDYYLANRTRRFTQIHHRLQQQHPQLRLARQQTMLERLQKRMSFALENQLKRTGQQQQRLTQRLNQQNPQPKIHRAQTRIQQLEYRLAETLRAQLSATRERFGNAVTHLEAVSPLSTLARGYSVTTATDGNVLKKVKQVKAGEMLTTRLEDGWIESEVKNIQPVKKSRKKVH | 5.772 ± 0.023 | 6.48 ± 0.87 | 5.98 ± 0.4 | 5.71 ± 0.13 | 6.11 ± 0.37 | 11.39 ± 0.059 | 5.89 ± 0.5 | 12.33 ± 0.035 | 6.05 ± 0.67 | 13.1 ± 2.8 | 6.078 ± 0.013 | 3.32 ± 0.21
5 | MLRECDYSQALLEQVNQAISDKTPLVIQGSNSKAFLGRPVTGQTLDVRCHRGIVNYDPTELVITARVGTPLVTIEAALESAGQMLPCEPPHYGEEATWGGMVACGLAGPRRPWSGSVRDFVLGTRIITGAGKHLRFGGEVMKNVAGYDLSRLMVGSYGCLGVLTEISMKVLPRPRASLSLRREISLQEAMSEIAEWQLQPLPISGLCYFDNALWIRLEGGEGSVKAARELLGGEEVAGQFWQQLREQQLPFFSLPGTLWRISLPSDAPMMDLPGEQLIDWGGALRWLKSTAEDNQIHRIARNAGGHATRFSAGDGGFAPLSAPLFRYHQQLKQQLDPCGVFNPGRMYAEL | – | – | – | – | 2.52 ± 0.13 | 3.59 ± 0.039 | – | – | – | 3.88 ± 1.7 | 4.1 ± 1.8 | 1.22 ± 0.36
6 | MLRFSANLSMLFGEYDFLARFEKAAQCGFRGVEFMFPYDYDIEELKHVLASNKLEHTLHNLPAGDWAAGERGIACIPGREEEFRDGVAAAIRYARALGNKKINCLVGKTPAGFSSEQIHATLVENLRYAANMLMKEDILLLIEPINHFDIPGFHLTGTRQALKLIDDVGCCNLKIQYDIYHMQRMEGELTNTMTQWADKIGHLQIADNPHRGEPGTGEINYDYLFKVIENSDYNGWVGCEYKPQTTTEAGLRWMDPYR | 5.97 | – | 4.98 | 3.59 ± 0.17 | – | 10.1 | 3.73 | 6.46 | 5.52 | 7.81 | 4.29 ± 0.63 | –
